Reference: patent US20210155670A1 (University of California, published 2021)

B1: TAPBPR (luminal domain, C94A), TEV-digested (unzippered) (other)
chain: KPHPAEGQWRAVDVVLDCFLVKDGAHRGALASSEDRARASLVLKQVPVLDDGSLEDFTDFQGGTLAQDDPPIIFEASVDLVQIPQAEALLHADASGKEVTCEISRYFLQMTETTVKTAAWFMANVQVSGGGPSISLVMKTPRVAKNEVLWHPTLNLPLSPQGTVRTAVEFQVMTQTQSLSFLLGSSASLDCGFSMAPGLDLISVEWRLQHKGRGQLVYSWTAGQGQAVRKGATLEPAQLGMARDASLTLPGLTIQDEGTYICQITTSLYRAQQIIQLNIQASPKVRLSLANEALLPTLICDIAGYYPLDVVVTWTREELGGSPAQVSGASFSSLRQSVAGTYSISSSLTAEGSAGATYTCQVTHISLEEPLGASTQVVPPERRLEGAGGSGGGGSGGGASGGGGSENLYFQS
notes: also called un-zippered (TEV cleaved) TAPBPR; chaperone TAPBPR
B2: Whole Z2 construct (TAPBPR, JUN), leucine-zippered TAPBPR with Strep tags (other)
chain: KPHPAEGQWRAVDVVLDCFLVKDGAHRGALASSEDRARASLVLKQVPVLDDGSLEDFTDFQGGTLAQDDPPIIFEASVDLVQIPQAEALLHADASGKEVTCEISRYFLQMTETTVKTAAWFMANVQVSGGGPSISLVMKTPRVAKNEVLWHPTLNLPLSPQGTVRTAVEFQVMTQTQSLSFLLGSSASLDCGFSMAPGLDLISVEWRLQHKGRGQLVYSWTAGQGQAVRKGATLEPAQLGMARDASLTLPGLTIQDEGTYICQITTSLYRAQQIIQLNIQASPKVRLSLANEALLPTLICDIAGYYPLDVVVTWTREELGGSPAQVSGASFSSLRQSVAGTYSISSSLTAEGSAGATYTCQVTHISLEEPLGASTQVVPPERRLEGAGGSGGGGSGGGASGGGGSENLYFQSSGGGGSKVDGGGGGRIARLEEKVKTLKAQNSELASTANMLREQVAQLKQVMNWSHPQFEKGGGSGGGSGGSAWSHPQFEKAA

How the values were obtained:
[1] = target: T1, single-chain MHC-I (beta2 microglobulin-(GGGS)4-HLA-A*02:01 ectodomain-AviTag), TEV-digested (unzippered), … (human); test: size exclusion chromatography after TEV cleavage
T1 construct: also called peptide receptive MHC-I complex; unzippered MHC-I

[2] = target: single-chain HLA-A*24:02 (beta2 microglobulin-linker-HLA-A*24:02 ectodomain-AviTag), TEV-digested, CHO-derived (human); test: co-expression, Strep tag purification, TEV digestion, size exclusion chromatography
[3] = target: T2, Whole Z1 construct (B2m, HLA-A*02:01, FOS), leucine-zippered single-chain MHC-I (human); test: co-expression in CHO cells, purification by the Strep tag on TAPBPR, SDS PAGE
T2 construct: also called single-chain-Fos; single-chain MHC-I-B2M protein

Row | Binder | binding result [1] | binding result [2] | binding result [3]
1 | B1 | binds | binds | –
2 | B2 | – | – | binds
